Test results as given in US20100311844A1, “Spontaneously Forming Ellipsoidal Phospholipid Unilamellar Vesicles” (priority 2006, published 2010).
“Also recorded” adds a separate entry of the source.

B1: SapC: human Saposin C, over expressed in E. coli as His-tag protein, HPLC purified (protein)
chain: SDVYCEVCEFLVKEVTKLIDNNKTEKEILDAFDKMCSKLPKSLSEECQEVVDTYGSSILSILLEEVSPELVCSMLHLCSG
modifications: His-tag
notes: human Saposin C, over expressed in E. coli as His-tag protein, HPLC purified

How the values were obtained:
[1] = SANS of non-doped, H1-, H2- and SapC-doped DOPS/DPPC/DHPC mixtures (modified Guinier plot, ellipsoidal shell model fit); format: physicochemical; conditions: for effect of peptide on bilayer stability: SANS result; for effect of peptide on ULV size and size distribution / effect of peptide on membrane thickness: peptide 62.5 μM
Method: For preparation of liposomes containing protein, SapC was over expressed in E. coli cells using the IPTG-inducing pET system, and His-tag proteins were eluted from nickel columns. After dialysis, the proteins were further purified by HPLC chromatography as follows: The C4 reverse phase column was equilibrated with 0.1% trifluoroacetic acid (TFA) for 10 minutes, then the proteins were eluted in a linear (0-100%) gradient of 0.1% TFA in acetonitrile over 60 minutes. The major protein peak was collected and lyophilized, while protein concentrations were determined as described previously. H1 (YCEVCEFLVKEVTKLID) and H2 (EKEILDAF DKMCSKLPK) peptides were synthesized by SynPep Corp. (California, USA) and dissolved in D2O at a concentration of 1.5 mg/mL. The 0.1 wt. % lipid solution with [DOPS]/[DPPC]=10 and ([DPPC]+[DOPS]/DHPC=4 was then added to the two peptide solutions (1.5 mg/mL) at a volume ratio of 12:1, and the SapC solution with a volume ratio of 1:1, yielding a final peptide (or SapC) concentration of 62.5 μM, (molar ratio of [lipid]/[peptide]=22/1) a concentration higher than the SapC required to induce membrane destabilization. A sample containing only 6.25 μM of SapC ([lipid]/[SapC]=220/1) was also prepared for comparison purposes.
To determine the structure and stability of the resulting liposomes, the homogenized 10 wt. % solutions are first progressively diluted into 5, 2, 1, 0.5 and 0.1 wt. % samples. Prior to DLS measurements, the 0.1 wt. % stock lipid samples are diluted 5, 50 and 200 fold, and are analyzed using an N4^+ particle sizer (Coulter, Miami, Fla.). Using this method, it was determined that diluting the system had no effect on the size of the particles. For SANS experiments, the same sample preparation protocol was applied to the [DOPS]/[DPPC]=10 sample except that D2O (99.9%, Chalk River Laboratories, Chalk River, ON), instead of H2O, was used to obtain a sample with a total lipid concentration of 0.5 wt. %. The 0.5 wt. % sample was then further diluted into 0.1 and 0.05 wt. % mixtures using an acidic buffer composed of equal-volumes of 0.1N sodium acetate (NaAc) and 0.1N acetic acid (HAc).
SANS experiments were carried out on the 30 m NG7 SANS instrument located at the National Institute of Standards and Technology (NIST) Center for Neutron Research (NCNR, Gaithersburg, Md., USA). 8.09 Å wavelength (λ) neutrons, a neutron focusing lens and a long sample-to-detector distance (SDD=15.3 m) were used to reach the lowest scattering vectors [q=4π/λ·sin(θ/2), where θ is the scattering angle]. Two other SDD (5 and 1 m) were also used, covering a combined q range from 0.002 to 0.35 Å^−1 for all three SDD. Raw 2-D data were corrected for detector sensitivity, background, empty cell scattering and sample transmission. The corrected data were then circularly averaged, around the beam center, yielding the customary 1-D data. […] The incoherent plateau was determined by averaging the intensity of 10-20 high q data points and then subtracted from the reduced data.
For q>0.06 Å^−1 the differences in intensity among the three data sets (FIG. 2) are indistinguishable. Analysis of a modified Guinier plot^30 (also known as Kratky-Porod plot) applied to all three samples, where ln(I·q^2) has a linear relationship with q^2 in the range between 5×10^−3 and 2.5×10^−2 Å^−2, indicate the existence of a lamellar structure. […] The lines represent the best-fits to the data. The bilayer thickness is then derived from the square root of the slope multiplying by √{square root over (12)}.
The model for a unilamellar tri-axial ellipsoidal vesicle is depicted as an ellipsoidal shell (FIG. 4) with different core lengths along the three prime axes, acore, bcore and ccore (acore≦bcore≦ccore). The shell lengths along the axes, ashell, bshell and cshell, are defined as (acore+l), (bcore+l) and (ccore+l), respectively, where l is the bilayer thickness. […]

[2] = biological target: T1, SapC induced membrane fusion (Homo sapiens, UniProt P07602); conditions: reported by Wang et al.; cited from earlier work
T1 sequence (P07602 311-390 limits assumed): B1 chain

[3] = AFM, supported membranes; cited from earlier work

Row | Molecule | effect of peptide on bilayer stability [1] | effect of peptide on ULV size and size distribution [1] | effect of peptide on membrane thickness [1] | inhibition of SapC induced membrane fusion [2] | effect on destabilization and restructuring of lipid membranes [3] | effect of SapC on ULV ([1]; SapC 6.25 μM, [lipid]/[SapC]=220/1) | effect of SapC on ULV ([1]; SapC 62.5 μM, [lipid]/[SapC]=22/1, acetate D2O buffer)
1 | EKEILDAFDKMCSKLPK [H2, helical domain peptide of SapC, synthesized by SynPep Corp] | do not destabilize the bilayer morphology | shifts the equilibrium between the two ULV aggregates present | small decreases to the membrane thickness | can inhibit SapC induced membrane fusion | neither H1 nor H2 alone have significant influence on membrane structure | – | –
2 | YCEVCEFLVKEVTKLID [H1, helical domain peptide of SapC, synthesized by SynPep Corp] | do not destabilize the bilayer morphology | does not appear to modify ULV size or their size distribution | small decreases to the membrane thickness | can inhibit SapC induced membrane fusion | neither H1 nor H2 alone have significant influence on membrane structure | – | –
3 | B1 | – | – | – | – | can destabilize and restructure the acidic membrane | ULV structure is unperturbed; also recorded: do not appear to perturb the size of ULV or their membrane structure | promotes aggregation of ULV
